Results taken from article PMC5938345.

Tests used:
[1] = molecular target: gp350-ECD123-Fc_(mIgG2a) (Epstein-Barr virus (strain M81) | mouse) (UniProt P03200); assay: SPR; Biacore T200; the three recombinant gp350s immobilised on CM5 chip at pH 5.5 with low RU to avoid avidity; MBP-hCR2 SCR1-2 injected at 30 µl/min; regeneration with 10 mM glycine-HCl pH 1.5; 1:1 fit
[2] = molecular target: gp350-ECD123-6His (Epstein-Barr virus (strain M81)) (UniProt P03200); assay: as above
[3] = molecular target: gp350-ECDFL-Fc_(mIgG2a) (Epstein-Barr virus (strain M81) | mouse) (UniProt P03200); assay: as above
[4] = molecular target: gp350-ECD123-Fc_(mIgG2a) (Epstein-Barr virus (strain M81) | mouse) (UniProt P03200); assay: SDS-PAGE under reducing and non-reducing conditions with Western blot; 15 µl supernatants of passage 1 baculovirus stocks, with and without β-ME, 10% SDS-PAGE; detected by anti-His or anti-mouse Fc antibody
[5] = molecular target: gp350-ECD123-Fc_(mIgG2a) (Epstein-Barr virus (strain M81) | mouse) (UniProt P03200); assay: AUC; sedimentation velocity, 20°C, PBS, 35,000 rpm, samples diluted to 1 OD at 280 nm; c(s) and c(M) in Sedfit
[6] = molecular target: gp350-ECDFL-Fc_(mIgG2a) (Epstein-Barr virus (strain M81) | mouse) (UniProt P03200); assay: SDS-PAGE under reducing and non-reducing conditions with Western blot; 15 µl supernatants of passage 1 baculovirus stocks, with and without β-ME, 10% SDS-PAGE; detected by anti-His or anti-mouse Fc antibody
[7] = molecular target: gp350-ECDFL-Fc_(mIgG2a) (Epstein-Barr virus (strain M81) | mouse) (UniProt P03200); assay: AUC; sedimentation velocity, 20°C, PBS, 35,000 rpm, samples diluted to 1 OD at 280 nm; c(s) and c(M) in Sedfit

## MBP-hCR2 SCR1-2 (domain or fragment)
[1]
  Kd: 94.6 nM
  koff: 0.00383 s⁻¹
  kon: 40500 M⁻¹ s⁻¹
[2]
  Kd: 294 nM
  koff: 0.00141 s⁻¹
  kon: 4780 M⁻¹ s⁻¹
[3]
  Kd: 68.5 nM
  koff: 0.0012 s⁻¹
  kon: 17600 M⁻¹ s⁻¹

## gp350-ECD123-Fc_(mIgG2a) (from UniProt P03200-1 1-425) (Fc fusion)
[4]
  stoichiometry N: 2
[5]
  stoichiometry N: 2

## gp350-ECDFL-Fc_(mIgG2a) (from UniProt P03200-1 1-803) (Fc fusion)
[6]
  stoichiometry N: 2
[7]
  stoichiometry N: 2
